For test [1], the target named is T1, Mesothelin Isoform 2 (IsoMSLN), antigen of the ELISA (human, UniProt Q13421 37-598).
T1 construct: also called MSLN Isoform 2; mesothelin isoform-2 polypeptide
The test can be described thus: ELISA. (An ELISA detects its analyte on a solid surface through an enzyme-linked reagent.)

Test [2] deals with T2, Mesothelin (MSLN) Isoform 1, antigen of the ELISA (human, UniProt Q13421 296-598, limits assumed).
T2 construct: also called Mesothelin canonical polypeptide
The test can be described thus: ELISA.

The source of these data is patent US20240293544A1 (KIROMIC BIOPHARMA, published 2024).

Usually EC50 stands for the concentration that produces a half-maximal response. A lower EC50 goes with greater potency.

T1 sequence (Q13421 37-606 limits assumed, form in doubt): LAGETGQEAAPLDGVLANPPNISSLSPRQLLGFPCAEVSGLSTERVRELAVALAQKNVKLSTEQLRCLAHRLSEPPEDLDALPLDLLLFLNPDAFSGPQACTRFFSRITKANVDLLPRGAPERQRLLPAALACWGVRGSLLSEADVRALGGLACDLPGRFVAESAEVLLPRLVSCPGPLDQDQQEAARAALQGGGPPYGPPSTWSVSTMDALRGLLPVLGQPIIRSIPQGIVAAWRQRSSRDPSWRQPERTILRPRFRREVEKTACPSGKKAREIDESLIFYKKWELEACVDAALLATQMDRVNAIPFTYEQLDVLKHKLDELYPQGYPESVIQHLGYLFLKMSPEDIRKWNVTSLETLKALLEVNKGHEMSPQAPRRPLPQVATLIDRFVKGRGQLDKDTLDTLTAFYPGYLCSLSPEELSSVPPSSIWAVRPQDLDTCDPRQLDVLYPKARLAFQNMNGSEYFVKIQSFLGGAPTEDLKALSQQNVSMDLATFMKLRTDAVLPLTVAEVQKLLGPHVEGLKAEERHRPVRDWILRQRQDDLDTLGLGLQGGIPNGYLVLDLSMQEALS
T2 sequence (Q13421 other isoform, or with tags, fused parts or gaps limits assumed): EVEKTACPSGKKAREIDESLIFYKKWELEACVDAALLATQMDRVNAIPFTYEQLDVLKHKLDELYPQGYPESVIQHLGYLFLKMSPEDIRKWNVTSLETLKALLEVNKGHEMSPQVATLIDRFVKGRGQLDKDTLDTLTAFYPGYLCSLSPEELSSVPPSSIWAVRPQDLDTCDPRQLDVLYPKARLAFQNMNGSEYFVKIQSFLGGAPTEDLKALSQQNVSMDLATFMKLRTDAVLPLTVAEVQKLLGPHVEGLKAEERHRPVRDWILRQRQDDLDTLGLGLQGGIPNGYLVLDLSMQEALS

B1: 1B6 monoclonal antibody (Binding Molecule A) (antibody, V domains shown)
VH: EVKLVESGGGLVKPGGSLKLSCEASGFTFSRYAMSWVRHTPEKRLAWVASITFGGDPYYPDGLKGRFTISRDNTRNILYLQMNSLRSEDTAMYYCVRHESWFAYWGQGTLVTVSA
VL: DVLMTQTPLSLPVSLGEQVSISCRSSQTIVHTDGNIYLEWYLQNPGQSPRLLIYKISNRFSGVPDRFSGSGSGTDFTLKISRVEAEDLGIYYCFQASHVPYTFGGGTKLEIK
notes: also called 1B6 antibody; 1B6 mAb
The molecule B1 registered an EC50 in test [1] of 0.073 µg/mL. Besides, the binding result in test [2] was “no binding”.
